Test results published in the supplement of paper PMC7877785.
± gives the uncertainty stated by the source.

Test: self-splicing fitness, log relative to wild type (ln ratio); higher = more splicing; Tetrahymena group I intron in knt gene, E. coli kanamycin selection, DiMSum; sequences stand for … in CUCUCU…GGAGGGAAAAGUUAUCAGGCAUGCACCUGGUAGCUAGUCUUUAAACCAAUAGAUUGCAUCGGUUUAAAAGGCAAGACCGUCAAAUUGCGGGAAAGGGGUCAACAGCCGUUCAGUACCAAGUCUCAGGGGAAACUUUGAGAUGGCCUUGCAAAGGGUAUGGUAAUAAGCUGACGGACAUGGUCCUAACCACGCAGCCAAGUCCUAAGUCAACAGAUCUUCUGUUGAUAUGGAUGCAGUUCACAGACUAAAUGUCGGUCGGGGAAGAUGUAUUCUUCUCAUAAGAUAUAGUCGGACCUCUCCUUAAUGGGAGCUAGCGGAUGAAGUGAUGCAACACUGGAGCCGCUGGGAACUAAUUUGUAUGCGAAAGUAUAUUGAUUAGUUUUGGAGUACUCGUGGUCG
Method in brief: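 Six replicate transformations of E. coli BL21(DE3) with a pET-22b(+) library were grown overnight at 37°C or 30°C. The library randomised all eight P1ex-region intron nucleotides, the intron lying in the knt kanamycin-resistance gene, and plates were LB agar with or without 25 μg/mL kanamycin plus 100 μg/mL carbenicillin, 50 μM IPTG and 0.2% rhamnose. Pooled colonies were amplicon-sequenced on an Illumina HiSeq 2500, and fitness is the DiMSum error-weighted combination of wild-type-normalised replicate fold changes, kanamycin versus none.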

Row | Sequence | self-splicing fitness (ln) (30 °C) | self-splicing fitness (ln) (37 °C)
1 | CAUGAGCAAUAUUACGAAAU | -2.72 ± 0.3 | -3.25 ± 0.43
2 | CAUGAGCAAUAUUACGAAUA | -1.59 ± 0.18 | -2.72 ± 0.4
3 | CAUGAGCAAUAUUACGACAA |  | -1.36 ± 0.33
4 | CAUGAGCAAUAUUACGACGU | -4.25 ± 0.39 | -0.969 ± 0.2
5 | CAUGAGCAAUAUUACGACUC | -3.85 ± 0.3 | -3.38 ± 0.39
6 | CAUGAGCAAUAUUACGAGUG | -2.67 ± 0.13 | -3 ± 0.21
7 | CAUGAGCAAUAUUACGAGUU |  | -2.6 ± 0.24
8 | CAUGAGCAAUAUUACGAUAC | -2.93 ± 0.35 | 
9 | CAUGAGCAAUAUUACGAUCU | -2.9 ± 0.36 | -2.37 ± 0.3
10 | CAUGAGCAAUAUUACGAUUA | -3.08 ± 0.24 | -2.02 ± 0.21
11 | CAUGAGCAAUAUUACGCCAA | -3.67 ± 0.41 | -2.53 ± 0.36
12 | CAUGAGCAAUAUUACGCUUA | -3.77 ± 0.43 | -2.19 ± 0.25
13 | CAUGAGCAAUAUUACGGAAG | -1.47 ± 0.077 | -0.61 ± 0.1
14 | CAUGAGCAAUAUUACGGCAG | -0.481 ± 0.086 | -0.96 ± 0.14
15 | CAUGAGCAAUAUUACGGGAG | -1 ± 0.095 | -1.54 ± 0.13
16 | CAUGAGCAAUAUUACGUACA | -3.1 ± 0.22 | -2.17 ± 0.3
17 | CAUGAGCAAUAUUACGUAUA | -3.31 ± 0.3 | -2.2 ± 0.21
18 | CAUGAGCAAUAUUACGUAUU | -3.86 ± 0.46 | -0.455 ± 0.16
19 | CAUGAGCAAUAUUACGUCGA | -2.57 ± 0.33 | 
20 | CAUGAGCAAUAUUACGUCUU | -4.56 ± 0.34 | -2.53 ± 0.25
21 | CAUGAGCAAUAUUACGUGUA | -3.33 ± 0.21 | -2.1 ± 0.15
22 | CAUGAGCAAUAUUACGUUCA | -3.67 ± 0.26 | -2.29 ± 0.17
23 | CAUGAGCAAUAUUACGUUCG | -1.33 ± 0.13 | -0.161 ± 0.14
24 | CAUGAGCAAUAUUACGUUUA | -3.69 ± 0.21 | -2.84 ± 0.2
25 | CAUUAGCAAUAUUACGACGC | -1.73 ± 0.39 | 

Row | Sequence | self-splicing fitness (ln) (30 °C) | self-splicing fitness (ln) (37 °C)
26 | CAUUAGCAAUAUUACGCAGU | -3.73 ± 0.18 | -2.77 ± 0.22
27 | CAUUAGCAAUAUUACGCCAG | -0.337 ± 0.094 | 0.267 ± 0.12
28 | CAUUAGCAAUAUUACGCCCA | -2.43 ± 0.2 | -1.47 ± 0.24
29 | CAUUAGCAAUAUUACGGAAG | -0.396 ± 0.1 | -0.104 ± 0.12
30 | CAUUAGCAAUAUUACGGGAG | -1.46 ± 0.12 | -1.09 ± 0.11
31 | CAUUAGCAAUAUUACGUGAC | -3.18 ± 0.26 | -1.58 ± 0.33
32 | CAUUAGCAAUAUUACGUUCU | -2.56 ± 0.15 | -2.62 ± 0.16
33 | CCAAAGCAAUAUUACGACCU | -3.31 ± 0.21 | -3.23 ± 0.38
34 | CCAAAGCAAUAUUACGACUU | -3.77 ± 0.16 | -3.01 ± 0.2
35 | CCAAAGCAAUAUUACGAGCC | -3.2 ± 0.21 | -2.07 ± 0.19
36 | CCAAAGCAAUAUUACGCCUC | -3.33 ± 0.29 | -2.52 ± 0.32
37 | CCAAAGCAAUAUUACGCGGU | -4.85 ± 0.29 | -1.78 ± 0.21
38 | CCAAAGCAAUAUUACGCUAC | -2.17 ± 0.23 | -1.58 ± 0.27
39 | CCAAAGCAAUAUUACGCUAG | -3.78 ± 0.2 | -2.4 ± 0.16
40 | CCAAAGCAAUAUUACGCUCC | -1.01 ± 0.2 | -1.74 ± 0.36
41 | CCAAAGCAAUAUUACGGAAA | -1.03 ± 0.26 | -3 ± 0.38
42 | CCAAAGCAAUAUUACGGAAC |  | -2.53 ± 0.36
43 | CCAAAGCAAUAUUACGGAAG | -2 ± 0.056 | -1.11 ± 0.074
44 | CCAAAGCAAUAUUACGGCAC | -4.07 ± 0.24 | -2.89 ± 0.21
45 | CCAAAGCAAUAUUACGGCCC | -3.57 ± 0.43 | 
46 | CCAAAGCAAUAUUACGGCUG | -0.987 ± 0.069 | -0.917 ± 0.088
47 | CCAAAGCAAUAUUACGUAGG | -3.85 ± 0.18 | -1.66 ± 0.12
48 | CCAAAGCAAUAUUACGUAGU | -3.67 ± 0.15 | -3.14 ± 0.14
49 | CCAAAGCAAUAUUACGUAUU | -4.14 ± 0.13 | -2.71 ± 0.12
50 | CCAAAGCAAUAUUACGUCUU | -4.12 ± 0.21 | -2.43 ± 0.14
